Common to all, as to experiment: cell-based or functional assay
Experiment [1] has as its target EGFR-TEV-NIa-Pro cleavage (Leu)-tTA (human) (UniProt P00533).
In experiment [2] the target is CCR5-tTA fusion construct containing the low efficiency cleavage site (UniProt P51681).
The target in experiment [3] is IGF1R-TEV-NIa-Pro cleavage (Leu)-tTA (human) (UniProt P08069).
Sequence of UniProt P08069 (P08069 whole entry, form in doubt): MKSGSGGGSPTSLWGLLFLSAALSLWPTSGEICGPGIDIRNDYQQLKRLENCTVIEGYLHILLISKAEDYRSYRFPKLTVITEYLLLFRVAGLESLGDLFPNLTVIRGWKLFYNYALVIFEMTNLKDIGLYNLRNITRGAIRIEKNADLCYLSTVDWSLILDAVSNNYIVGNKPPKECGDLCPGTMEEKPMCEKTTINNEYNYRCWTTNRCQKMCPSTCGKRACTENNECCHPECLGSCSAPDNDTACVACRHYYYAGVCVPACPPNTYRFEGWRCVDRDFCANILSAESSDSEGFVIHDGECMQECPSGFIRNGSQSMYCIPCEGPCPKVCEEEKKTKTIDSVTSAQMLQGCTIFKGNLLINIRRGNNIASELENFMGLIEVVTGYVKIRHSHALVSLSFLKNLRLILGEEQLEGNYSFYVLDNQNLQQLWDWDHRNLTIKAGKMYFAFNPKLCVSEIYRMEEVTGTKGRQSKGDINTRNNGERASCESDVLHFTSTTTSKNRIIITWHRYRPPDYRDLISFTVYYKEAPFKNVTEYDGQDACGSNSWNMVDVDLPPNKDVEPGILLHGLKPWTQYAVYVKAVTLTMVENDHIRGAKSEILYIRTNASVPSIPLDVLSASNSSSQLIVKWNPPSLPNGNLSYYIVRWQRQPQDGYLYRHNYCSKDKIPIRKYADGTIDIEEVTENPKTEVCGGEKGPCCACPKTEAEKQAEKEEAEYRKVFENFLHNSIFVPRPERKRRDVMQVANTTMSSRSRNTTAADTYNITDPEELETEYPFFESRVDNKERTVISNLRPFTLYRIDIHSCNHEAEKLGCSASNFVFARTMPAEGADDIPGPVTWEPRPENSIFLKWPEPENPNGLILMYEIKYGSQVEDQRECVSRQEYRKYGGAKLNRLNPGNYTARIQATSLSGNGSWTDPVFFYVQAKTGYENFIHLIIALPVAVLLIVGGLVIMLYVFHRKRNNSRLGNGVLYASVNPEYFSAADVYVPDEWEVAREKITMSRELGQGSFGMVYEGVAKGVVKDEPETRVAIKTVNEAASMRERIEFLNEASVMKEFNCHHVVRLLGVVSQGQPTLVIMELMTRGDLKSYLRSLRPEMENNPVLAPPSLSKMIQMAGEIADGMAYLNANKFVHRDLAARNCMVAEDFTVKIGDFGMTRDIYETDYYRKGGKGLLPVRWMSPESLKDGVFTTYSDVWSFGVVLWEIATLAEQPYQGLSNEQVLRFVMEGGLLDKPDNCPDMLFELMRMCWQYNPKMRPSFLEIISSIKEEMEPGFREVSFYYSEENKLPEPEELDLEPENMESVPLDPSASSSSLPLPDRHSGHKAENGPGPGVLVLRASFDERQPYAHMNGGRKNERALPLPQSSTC

Sequence of UniProt P51681 (P51681 whole entry, form in doubt, the tested form may be a part): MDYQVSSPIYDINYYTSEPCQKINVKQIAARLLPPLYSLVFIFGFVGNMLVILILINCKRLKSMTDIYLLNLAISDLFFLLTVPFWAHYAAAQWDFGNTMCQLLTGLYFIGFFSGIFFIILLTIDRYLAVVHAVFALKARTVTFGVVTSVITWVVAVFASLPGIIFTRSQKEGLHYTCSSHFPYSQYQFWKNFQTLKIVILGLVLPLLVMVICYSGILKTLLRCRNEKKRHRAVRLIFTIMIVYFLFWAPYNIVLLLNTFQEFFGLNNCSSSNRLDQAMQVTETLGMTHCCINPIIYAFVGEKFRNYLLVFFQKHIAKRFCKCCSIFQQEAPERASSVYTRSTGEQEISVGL

“human Transforming Growth Factor - Alpha (from UniProt P01135 40-89) (ligand)” gave a fold increase of luciferase reporter gene activity, 100 ng/ml TGF-alpha in experiment [1] of 18.3 fold. In experiment [2], “Regulated on Activation, Normal T-Cell Expressed and Secreted (RANTES) (from UniProt P13501 24-91) (ligand)” came in with a fold induction of reporter gene expression over the background, 1 µg/ml RANTES, clone 34 cells of 40 fold. In the case of SHC1-TEV (from UniProt P29353 1-238), the fold increase of luciferase reporter gene activity, 1 µM IGF-1 in experiment [3] was determined as 90 fold. In experiment [1], PLC Gamma1-TEV yielded a fold increase of luciferase reporter gene activity, 2.5 ng/ml EGF of 12.3 fold and a fold increase of luciferase reporter gene activity, 100 ng/ml TGF-alpha of 18.3 fold.

Values taken from EP2002021B1.
